One block for each binder: values may come before it.
Tests used:
biotinylated human PD-L1 = biological target: T1, biotinylated human PD-L1 (human, UniProt Q9NZQ7 19-238, limits assumed, biotinylated (site not stated)); test: ELISA, biotinylated antigen captured on neutravidin plates, HRP secondary antibody
T1 construct: also called Human PDL1-biotin
Description: (§1) The polypeptide complex molecules were evaluated for their ability to bind human PDL1 or CD28 in a standard enzyme linked immunosorbent assay (ELISA) format. […] Polypeptide complex molecules diluted in buffer were then added to the antigen coated plates. Bound polypeptide complex was detected using a standard horse radish peroxidase conjugate secondary antibody.

biotinylated human CD28 = biological target: T2, biotinylated human CD28 (human, UniProt P10747 19-152, limits assumed, biotinylated (site not stated)); test: as above
T2 construct: also called Human CD28-Biotin
Description: as §1

EC50 (biotinylated human PD-L1): 0.11 nM
EC50 (biotinylated human CD28): 0.91 nM
B1: Ab-5 (bispecific antibody)
light: QSALTQPASVSGSPGQSITISCTGTSSDVGGYNYVSWYQQHPGKAPKLMIYDVSNRPSGVSNRFSGSKSGNTASLTISGLQAEDEADYYCSSYTSSSTRVFGTGTKVTVLGQPKANPTVTLFPPSSEELQANKATLVCLISDFYPGAVTVAWKADGSPVKAGVETTKPSKQSNNKYAASSYLSLTPEQWKSHRSYSCQVTHEGSTVEKTVAPTECS
heavy: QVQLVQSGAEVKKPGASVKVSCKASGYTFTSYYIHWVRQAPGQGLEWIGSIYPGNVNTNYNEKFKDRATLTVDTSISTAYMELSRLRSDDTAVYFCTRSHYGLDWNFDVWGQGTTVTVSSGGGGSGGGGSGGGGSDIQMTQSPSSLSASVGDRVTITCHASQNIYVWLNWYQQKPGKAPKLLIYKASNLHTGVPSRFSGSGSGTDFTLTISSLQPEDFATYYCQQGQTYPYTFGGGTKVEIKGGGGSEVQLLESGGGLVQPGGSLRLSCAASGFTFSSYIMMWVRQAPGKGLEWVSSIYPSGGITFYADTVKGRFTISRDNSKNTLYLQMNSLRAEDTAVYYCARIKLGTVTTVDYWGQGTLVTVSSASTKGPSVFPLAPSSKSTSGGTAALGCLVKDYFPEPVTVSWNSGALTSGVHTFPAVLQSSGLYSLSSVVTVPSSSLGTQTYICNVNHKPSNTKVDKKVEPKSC
notes: Anti-CD28 scFv fused to the heavy chain of anti-PD-L1 Fab 3; no Fc

EC50 (biotinylated human PD-L1): 0.28 nM
EC50 (biotinylated human CD28): 1.89 nM
B2: Ab-6 (bispecific antibody)
light: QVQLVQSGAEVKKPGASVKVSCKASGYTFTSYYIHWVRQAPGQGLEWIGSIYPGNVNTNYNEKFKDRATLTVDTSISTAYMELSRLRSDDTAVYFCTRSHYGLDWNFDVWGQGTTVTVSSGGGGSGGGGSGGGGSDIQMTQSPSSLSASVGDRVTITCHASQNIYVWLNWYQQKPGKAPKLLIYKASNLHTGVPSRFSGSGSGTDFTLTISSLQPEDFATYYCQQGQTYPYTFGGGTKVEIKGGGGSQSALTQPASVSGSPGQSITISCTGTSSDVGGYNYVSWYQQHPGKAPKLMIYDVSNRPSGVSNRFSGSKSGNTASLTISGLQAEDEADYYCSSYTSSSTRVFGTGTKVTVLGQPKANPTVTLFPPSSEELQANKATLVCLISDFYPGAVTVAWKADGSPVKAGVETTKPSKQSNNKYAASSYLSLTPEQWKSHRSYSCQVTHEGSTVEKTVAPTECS
heavy: EVQLLESGGGLVQPGGSLRLSCAASGFTFSSYIMMWVRQAPGKGLEWVSSIYPSGGITFYADTVKGRFTISRDNSKNTLYLQMNSLRAEDTAVYYCARIKLGTVTTVDYWGQGTLVTVSSASTKGPSVFPLAPSSKSTSGGTAALGCLVKDYFPEPVTVSWNSGALTSGVHTFPAVLQSSGLYSLSSVVTVPSSSLGTQTYICNVNHKPSNTKVDKKVEPKSC
notes: Anti-CD28 scFv fused to the light chain of anti-PD-L1 Fab 3; no Fc

Reference: patent publication US20230406937A1 (JANUX THERAPEUTICS, published 2023)
